The values below come from publication PMC3199733, “Expression, purification, electron microscopy, N-glycosylation mutagenesis and molecular modeling of human P2X4 and Dictyostelium discoideum P2XA” (Biochimica et Biophysica Acta, 2011).

“And” between values parts separate entries of the source, which are not always exact repeats. Identical values can stand only once.

The data set concerns the molecule itself. Put plainly: native gel or EMSA; non-denaturing PFO-PAGE (6% gels, 4% PFO) with anti-His Western blot of Sf9 membranes, untreated (Total) or solubilised in 1% (w/v) detergent (DDM, beta-OG, TX-100, FC-12, C12E8, LDAO) in TBS, 1 h on ice.

B1: Dictyostelium discoideum P2XA-(His)6 (receptor, UniProt Q86JM7 1-378, looked up)
chain: MGFSFDWDDIFQYSTVKIVRIRDRRLGILHLSFLVGIVAYIVVYSAIIKKGYLFTEVPIGSVRTSLKGPNTFASNLTYCSNQQHNGSTYPFTPLECNYWDEQLALFPVGQDSTFTCTTRVRLSKQEANCNFTDPTCKFVDEPGSAKNIYIADIESFTILIDHTMYASSSGSQFNAVDLHGYILNQDGDEVQIDANGTSIGVSGKPDIMTIGQLLSFGGVSLDQASPVDSNVSIRYDGVVLFVFITYSNTYTYSTSDFKYVYSVQQIANTIYDVPETIILESIHSRLLYKRHGIRVIFIQTGTIGSFHFQTLLLTLVSGLGLLAVATTVVDQLAIRLLPQRKSYSSLKFQVTESMSNPMKKRITTDEGEDVLYTRIEGL
notes: P2XA receptor of Dictyostelium discoideum, full-length wild type, from a human codon-optimised cDNA; N-glycosylated (insect-cell type); also called DdP2XA; DdP2XA-(His)6; source: Sf9 cells, baculovirus-infected; in detergent-solubilised membranes, and purified (Ni-sepharose, preparative PFO-PAGE)
Turning to B1, the stoichiometry N – broadly, a count of units in the complex or per binding partner – worked out at 3.

B2: human P2X4-(His)10 (receptor, UniProt Q99571 1-388, looked up)
chain: MAGCCAALAAFLFEYDTPRIVLIRSRKVGLMNRAVQLLILAYVIGWVFVWEKGYQETDSVVSSVTTKVKGVAVTNTSKLGFRIWDVADYVIPAQEENSLFVMTNVILTMNQTQGLCPEIPDATTVCKSDASCTAGSAGTHSNGVSTGRCVAFNGSVKTCEVAAWCPVEDDTHVPQPAFLKAAENFTLLVKNNIWYPKFNFSKRNILPNITTTYLKSCIYDAKTDPFCPIFRLGKIVENAGHSFQDMAVEGGIMGIQVNWDCNLDRAASLCLPRYSFRRLDTRDVEHNVSPGYNFRFAKYYRDLAGNEQRTLIKAYGIRFDIIVFGKAGKFDIIPTMINIGSGLALLGMATVLCDIIVLYCMKKRLYYREKKYKYVEDYEQGLASELDQ
notes: human P2X4 receptor, full-length wild type; N-glycosylated (insect-cell type); also called hP2X4; source: Sf9 cells, baculovirus-infected; in membranes, untreated or detergent-solubilised
In the case of B2, the “stoichiometry N” value is 2 and 3.
